Patent US20070092942
Changes are numbered by the printed parent chain. In names and notes the source's numbering stands.

B1: EBV205 (protein)
chain: MSNGDWGQSQRTRGTGPVRGIRTMDVNAPGGGSGGSALRILGTASCNQAHCKFGRFAGIQCVSNCVLYLVKSFLAGRPLTSRPELDEVLDEGARLDALMRQSGILKGHEMAQLTDVPSSVVLRGGGRVHIYRSAEIFGLVLFPAQIANSAVVQSLAEVLHGSYNGVAQFILYICDIYAGAIIIETDGSFYLFDPHCQKDAAPGTP
B2: EBV205 C61A (protein)
chain: B1 chain with C61A
B3: His6UL36^USP (protein)
chain: MGGGNNTNPGGPVHKQAGSLASRAHMIAGTPPHSTMERGGDRDIVVTGARNQFAPDLEPGGSVSCMRSSLSFLSLIFDVGPRDVLSAEAIEGCLVEGGEWTRATAGPGPPRMCSIVELPNFLEYPGARGGLRCVFSRVYGEVGFFGEPAAGLLETQCPAHTFFAGPWALRPLSYTLLTIGPLGMGLFRDGDTAYLFDPHGLPEGTPAFIAKVRAGDMYPYLTYYTRDRPDVRWAGAMVFFVPSGPEPAAPADLTAAALHLYGASETYLQDEAFSERRVAITHPLRGEIAGLGEPCVGVGPREGVGGPGPHPPTAAQSPPPTRARRDDRASETSRGTAGPSAKPEAKRPNRAPDDVWAVALKGTPPTDPPSADPPSADPPSAIPPPPPSAPKTPAAEAAEEDDDDMRVLEMGVVPVGRHRARYSAGLPKRRRPTWTPPSSVEDLTSGEKTKRSAPPAKTKKKSTPKGKTPVGAAVPASVPEPVLASAPPDPAGPPVAEAGEDDGPTVPASSQALEALKTRRSPEPPGADLAQLF

Key:
[1] = target: Ub C-terminal 7-amido-4-methylcoumarin, P0CG47
Chain of Ub C-terminal 7-amido-4-methylcoumarin, P0CG47 (P0CG47 whole entry, looked up): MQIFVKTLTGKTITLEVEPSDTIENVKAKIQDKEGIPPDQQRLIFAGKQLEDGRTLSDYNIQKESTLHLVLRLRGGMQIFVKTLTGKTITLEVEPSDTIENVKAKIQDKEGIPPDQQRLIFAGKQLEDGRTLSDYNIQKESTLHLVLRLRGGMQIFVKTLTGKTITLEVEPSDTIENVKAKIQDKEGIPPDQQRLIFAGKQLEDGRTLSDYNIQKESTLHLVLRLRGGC

[2] = target: His-tagged Lys^48-linked polyubiquitin, P0CG47
Chain of His-tagged Lys^48-linked polyubiquitin, P0CG47 (P0CG47 whole entry, looked up): as above

[3] = target: His-tagged Lys^63-linked polyubiquitin, P0CG47
Chain of His-tagged Lys^63-linked polyubiquitin, P0CG47 (P0CG47 whole entry, looked up): as above

[4] = target: isopeptide-linked ISG15-peptide conjugate, P05161
Chain of isopeptide-linked ISG15-peptide conjugate, P05161 (P05161 1-157): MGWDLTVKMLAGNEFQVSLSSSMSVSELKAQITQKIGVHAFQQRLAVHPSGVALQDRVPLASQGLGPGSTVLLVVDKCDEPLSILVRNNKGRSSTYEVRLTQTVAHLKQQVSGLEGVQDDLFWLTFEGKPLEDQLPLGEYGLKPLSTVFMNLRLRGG

[5] = target: isopeptide-linked Nedd8-peptide conjugate, Q15843
Chain of isopeptide-linked Nedd8-peptide conjugate, Q15843 (Q15843 whole entry, looked up, tested part not stated): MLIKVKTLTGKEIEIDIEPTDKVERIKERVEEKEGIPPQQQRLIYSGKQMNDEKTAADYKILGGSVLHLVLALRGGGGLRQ

[6] = target: isopeptide-linked SUMO-1-peptide conjugate, P63165
Chain of isopeptide-linked SUMO-1-peptide conjugate, P63165 (P63165 1-97): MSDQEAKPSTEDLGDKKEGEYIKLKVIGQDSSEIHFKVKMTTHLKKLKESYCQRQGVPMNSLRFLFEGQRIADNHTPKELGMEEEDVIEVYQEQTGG

[7] = target: isopeptide-linked Ub-peptide conjugate, P0CG47
Chain of isopeptide-linked Ub-peptide conjugate, P0CG47 (P0CG47 whole entry, looked up, tested part not stated): as the sequence (P0CG47 whole entry, looked up) above

Row | Protein | UbAMC hydrolysis [1] | polyubiquitin chain depolymerization, anti-His immunoblot [2] | polyubiquitin chain depolymerization, anti-His immunoblot [3] | Ub-AMC cleavage, turnover number [1] | isopeptidase assay, loss of biotin signal [4] | isopeptidase assay, loss of biotin signal [5] | isopeptidase assay, loss of biotin signal [6] | isopeptidase assay, loss of biotin signal [7]
1 | B1 | efficiently hydrolyzed UbAMC | – | – | – | – | – | – | –
2 | B2 | absent in the case of active site mutants | – | – | – | – | – | – | –
3 | B3 | – | we observed deubiquitination of Lys^48-linked polyUb only | The failure of UL36^USP to cleave Lys^63-linked polyUb | ~6 min⁻¹ | Isopeptide-linked conjugates of Nedd8, ISG15 or SUMO-1 are not substrates for UL36^USP | Isopeptide-linked conjugates of Nedd8, ISG15 or SUMO-1 are not substrates for UL36^USP | Isopeptide-linked conjugates of Nedd8, ISG15 or SUMO-1 are not substrates for UL36^USP | results in cleavage of the Ub-peptide conjugate only
